The record followed here is IntAct's records for PubMed 20956942.

B1: Thyroid hormone receptor beta (Homo sapiens), P10828-1 (parent)
chain: MTPNSMTENGLTAWDKPKHCPDREHDWKLVGMSEACLHRKSHSERRSTLKNEQSSPHLIQTTWTSSIFHLDHDDVNDQSVSSAQTFQTEEKKCKGYIPSYLDKDELCVVCGDKATGYHYRCITCEGCKGFFRRTIQKNLHPSYSCKYEGKCVIDKVTRNQCQECRFKKCIYVGMATDLVLDDSKRLAKRKLIEENREKRRREELQKSIGHKPEPTDEEWELIKTVTEAHVATNAQGSHWKQKRKFLPEDIGQAPIVNAPEGGKVDLEAFSHFTKIITPAITRVVDFAKKLPMFCELPCEDQIILLKGCCMEIMSLRAAVRYDPESETLTLNGEMAVTRGQLKNGGLGVVSDAIFDLGMSLSSFNLDDTEVALLQAVLLMSSDRPGLACVERIEKYQDSFLLAFEHYINYRKHHVTHFWPKLLMKVTDLRMIGACHASRFLHMKVECPTELFPPLFLEVFED

Variants of B1 are the subject of the first assay. The conditions noted are these: with ncoa3_human NCOA3, Q9Y6Q9.
With MTPNSMTENGLTAWDKPKHCPDREHDWKLVGMSEACLHRKSHSERRSTLKNEQSSPHLIQTTWTSSIFHLDHDDVNDQSVSSAQTFQTEEKKCKGYIPSYLDKDELCVVCGDKATGYHYRCITCEGCKGFFRRTIQKNLHPSYSCKYEGKCVIDKVTRNQCQECRFKKCIYVGMATDLVLDDSKRLAKRKLIEENREKRRREELQKSIGHKPEPTDEEWELIKTVTEAHVATNAQGSHWKQKWKFLPEDIGQAPIVNAPEGGKVDLEAFSHFTKIITPAITRVVDFAKKLPMFCELPCEDQIILLKGCCMEIMSLRAAVRYDPESETLTLNGEMAVTRGQLKNGGLGVVSDAIFDLGMSLSSFNLDDTEVALLQAVLLMSSDRPGLACVERIEKYQDSFLLAFEHYINYRKHHVTHFWPKLLMKVTDLRMIGACHASRFLHMKVECPTELFPPLFLEVFED [R243W], the “effect of a mutation on the interaction” value is recorded as “increasing interaction”.

For MTPNSMTENGLTAWDKPKHCPDREHDWKLVGMSEACLHRKSHSERRSTLKNEQSSPHLIQTTWTSSIFHLDHDDVNDQSVSSAQTFQTEEKKCKGYIPSYLDKDELCVVCGDKATGYHYRCITCEGCKGFFRRTIQKNLHPSYSCKYEGKCVIDKVTRNQCQECRFKKCIYVGMATDLVLDDSKRLAKRKLIEENREKRRREELQKSIGHKPEPTDEEWELIKTVTEAHVATNAQGSHWKQKRKFLPEDIGQAPIVNAPEGGKVDLEAFSHFTKIITPAITRVVDFAIKLPMFCELPCEDQIILLKGCCMEIMSLRAAVRYDPESETLTLNGEMAVTRGQLKNGGLGVVSDAIFDLGMSLSSFNLDDTEVALLQAVLLMSSDRPGLACVERIEKYQDSFLLAFEHYINYRKHHVTHFWPKLLMKVTDLRMIGACHASRFLHMKVECPTELFPPLFLEVFED [K288I], the “effect of a mutation on the interaction” value is listed as “disrupting interaction”.

For the variant MTPNSMTENGLTAWDKPKHCPDREHDWKLVGMSEACLHRKSHSERRSTLKNEQSSPHLIQTTWTSSIFHLDHDDVNDQSVSSAQTFQTEEKKCKGYIPSYLDKDELCVVCGDKATGYHYRCITCEGCKGFFRRTIQKNLHPSYSCKYEGKCVIDKVTRNQCQECRFKKCIYVGMATDLVLDDSKRLAKRKLIEENREKRRREELQKSIGHKPERTDEEWELIKTVTEAHVATNAQGSHWKQKRKFLPEDIGQAPIVNAPEGGKVDLEAFSHFTKIITPAITRVVDFAKKLPMFCELPCEDQIILLKGCCMEIMSLRAAVRYDPESETLTLNGEMAVTRGQLKNGGLGVVSDAIFDLGMSLSSFNLDDTEVALLQAVLLMSSDRPGLACVERIEKYQDSFLLAFEHYINYRKHHVTHFWPKLLMKVTDLRMIGACHASRFLHMKVECPTELFPPLFLEVFED [P214R], the “effect of a mutation on the interaction” value is recorded as “increasing interaction”.

Consider MTPNSMTENGLTAWDKPKHCPDREHDWKLVGMSEACLHRKSHSERRSTLKNEQSSPHLIQTTWTSSIFHLDHDDVNDQSVSSAQTFQTEEKKCKGYIPSYLDKDELCVVCGDKATGYHYRCITCEGCKGFFRRTIQKNLHPSYSCKYEGKCVIDKVTRNQCQECRFKKCIYVGMATDLVLDDSKRLAKRKLIEENREKRRREELQKSIGHKPEPTDEEWELIKTVTEAHVATNAQGSHWKQKRKFLPEDIGQAPIVNAPEGGKVDLEAFSHFTKIITPAITRVVDFAKKLPMFCELPCEDQIILLKGCCMEIMSLRAAVRYDPESETLTLNGEMAVTRGQLKNGGLGVVSDAIFDLGMSLSSFNLDDTEVALLQAVLLMSSDRPGLACVERIEKYQDSFLLAFEHYINYRKHHVTHFWPKLLMKVTDLRMIGACHASRFLHMKVECPTELFPPLFLQVFED [E457Q], for which the “effect of a mutation on the interaction” value is given as “decreasing interaction”.

In the next assay the parent is B1. The conditions noted are these: with ncor2_human NCOR2, Q9Y618.
With MTPNSMTENGLTAWDKPKHCPDREHDWKLVGMSEACLHRKSHSERRSTLKNEQSSPHLIQTTWTSSIFHLDHDDVNDQSVSSAQTFQTEEKKCKGYIPSYLDKDELCVVCGDKATGYHYRCITCEGCKGFFRRTIQKNLHPSYSCKYEGKCVIDKVTRNQCQECRFKKCIYVGMATDLVLDDSKRLAKRKLIEENREKRRREELQKSIGHKPEPTDEEWELIKTVTEAHVATNAQGSHWKQKWKFLPEDIGQAPIVNAPEGGKVDLEAFSHFTKIITPAITRVVDFAKKLPMFCELPCEDQIILLKGCCMEIMSLRAAVRYDPESETLTLNGEMAVTRGQLKNGGLGVVSDAIFDLGMSLSSFNLDDTEVALLQAVLLMSSDRPGLACVERIEKYQDSFLLAFEHYINYRKHHVTHFWPKLLMKVTDLRMIGACHASRFLHMKVECPTELFPPLFLEVFED [R243W], the “effect of a mutation on the interaction” value was “increasing interaction”.

As for MTPNSMTENGLTAWDKPKHCPDREHDWKLVGMSEACLHRKSHSERRSTLKNEQSSPHLIQTTWTSSIFHLDHDDVNDQSVSSAQTFQTEEKKCKGYIPSYLDKDELCVVCGDKATGYHYRCITCEGCKGFFRRTIQKNLHPSYSCKYEGKCVIDKVTRNQCQECRFKKCIYVGMATDLVLDDSKRLAKRKLIEENREKRRREELQKSIGHKPEPTDEEWELIKTVTEGGVAANAQGSHWKQKRKFLPEDIGQAPIVNAPEGGKVDLEAFSHFTKIITPAITRVVDFAKKLPMFCELPCEDQIILLKGCCMEIMSLRAAVRYDPESETLTLNGEMAVTRGQLKNGGLGVVSDAIFDLGMSLSSFNLDDTEVALLQAVLLMSSDRPGLACVERIEKYQDSFLLAFEHYINYRKHHVTHFWPKLLMKVTDLRMIGACHASRFLHMKVECPTELFPPLFLEVFED [A228G;H229G;T232A], the “effect of a mutation on the interaction” value is listed as “decreasing interaction”.

Take MTPNSMTENGLTAWDKPKHCPDREHDWKLVGMSEACLHRKSHSERRSTLKNEQSSPHLIQTTWTSSIFHLDHDDVNDQSVSSAQTFQTEEKKCKGYIPSYLDKDELCVVCGDKATGYHYRCITCEGCKGFFRRTIQKNLHPSYSCKYEGKCVIDKVTRNQCQECRFKKCIYVGMATDLVLDDSKRLAKRKLIEENREKRRREELQKSIGHKPERTDEEWELIKTVTEAHVATNAQGSHWKQKRKFLPEDIGQAPIVNAPEGGKVDLEAFSHFTKIITPAITRVVDFAKKLPMFCELPCEDQIILLKGCCMEIMSLRAAVRYDPESETLTLNGEMAVTRGQLKNGGLGVVSDAIFDLGMSLSSFNLDDTEVALLQAVLLMSSDRPGLACVERIEKYQDSFLLAFEHYINYRKHHVTHFWPKLLMKVTDLRMIGACHASRFLHMKVECPTELFPPLFLEVFED [P214R]: the “effect of a mutation on the interaction” value was “decreasing interaction”.
